Data from patent US20180185504A1.
Each block holds one substance with its values, some of them ahead of it.

Tests used:
[1] = target: human prolactin receptor (PRLR) on cells (human) (UniProt P16471); experiment: cell-based or functional assay
[2] = target: human prolactin (PRL) (human) (UniProt P01236); experiment: ELISA: dimeric PRLR (3.38 pM to 200 nM) on plate-coated human PRL (1 µg/mL), HRP anti-Fc-gamma detection
[3] = target: mouse PRLR construct with an HA tag on HEK293/mPRLR cells (mouse) (UniProt Q08501); experiment: FACS on HEK293/mPRLR cells
Sequence of mouse PRLR construct with an HA tag on HEK293/mPRLR cells (mouse) (Q08501 20-608): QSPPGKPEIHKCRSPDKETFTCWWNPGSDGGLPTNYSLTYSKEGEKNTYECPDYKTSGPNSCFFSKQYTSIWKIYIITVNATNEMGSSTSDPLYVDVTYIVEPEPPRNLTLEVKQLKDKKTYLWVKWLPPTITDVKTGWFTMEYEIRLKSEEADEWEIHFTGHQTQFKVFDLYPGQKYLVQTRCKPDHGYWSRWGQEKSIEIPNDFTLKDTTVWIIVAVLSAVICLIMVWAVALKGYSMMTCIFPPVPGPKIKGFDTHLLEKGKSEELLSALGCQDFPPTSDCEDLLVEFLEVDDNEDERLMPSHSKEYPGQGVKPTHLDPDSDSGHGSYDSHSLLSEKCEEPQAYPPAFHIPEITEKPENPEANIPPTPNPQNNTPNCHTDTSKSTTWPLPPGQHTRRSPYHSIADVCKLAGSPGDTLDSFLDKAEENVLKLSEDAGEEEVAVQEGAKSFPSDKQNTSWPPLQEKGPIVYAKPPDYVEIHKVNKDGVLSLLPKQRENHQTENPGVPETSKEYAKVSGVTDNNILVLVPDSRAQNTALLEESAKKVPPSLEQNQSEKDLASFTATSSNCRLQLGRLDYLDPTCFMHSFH

Sequence of human prolactin receptor (PRLR) on cells (human) (P16471 25-622 limits assumed): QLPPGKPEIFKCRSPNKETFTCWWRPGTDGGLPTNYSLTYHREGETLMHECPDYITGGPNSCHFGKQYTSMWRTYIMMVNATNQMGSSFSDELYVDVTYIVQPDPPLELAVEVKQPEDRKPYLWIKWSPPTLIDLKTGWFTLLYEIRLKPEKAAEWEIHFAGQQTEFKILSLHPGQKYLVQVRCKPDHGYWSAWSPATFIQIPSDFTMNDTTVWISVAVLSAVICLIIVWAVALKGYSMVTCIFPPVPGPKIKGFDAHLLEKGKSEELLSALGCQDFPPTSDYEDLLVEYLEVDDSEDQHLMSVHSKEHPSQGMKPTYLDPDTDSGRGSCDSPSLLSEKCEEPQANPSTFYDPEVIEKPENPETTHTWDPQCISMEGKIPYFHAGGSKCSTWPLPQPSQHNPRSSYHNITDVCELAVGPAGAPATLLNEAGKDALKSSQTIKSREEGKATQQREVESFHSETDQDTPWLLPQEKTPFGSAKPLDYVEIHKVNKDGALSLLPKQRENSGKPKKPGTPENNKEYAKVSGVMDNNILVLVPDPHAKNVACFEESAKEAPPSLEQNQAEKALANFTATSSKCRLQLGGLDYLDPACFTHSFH
Sequence of human prolactin (PRL) (human) (P01236 29-227 limits assumed): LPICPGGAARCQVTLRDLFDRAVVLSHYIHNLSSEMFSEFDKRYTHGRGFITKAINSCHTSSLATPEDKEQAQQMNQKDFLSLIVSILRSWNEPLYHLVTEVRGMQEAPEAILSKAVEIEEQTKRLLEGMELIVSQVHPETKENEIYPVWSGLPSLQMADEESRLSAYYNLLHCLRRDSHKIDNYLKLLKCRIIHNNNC

EC50, STAT5-luciferase reporter in HEK293/PRLR/STAT5-Luc cells [1]: 2.1 nM
Substance: human prolactin (PRL) (from UniProt P01236 29-227) (ligand)

EC50 [2]: 5.7 nM
Substance: dimeric form of cynomolgus monkey (Macaca fascicularis) PRLR (Example 12 ELISA) (Fc fusion)

FACS Cell Binding (Fold Above Background) [3]: 1 fold
Substance: Isotype Ctrl I (antibody)
